First the molecules themselves.
B1: Ac-(06-34-18) 3Pal2 (peptide)
peptide: Ac-CS[3Pal]PARCLHQDLC-NH2
modifications: linker 1-7-13 via TBMB
SMILES: CC(=O)N[C@H]1CSCc2cc3cc(c2)CSC[C@H](NC(=O)[C@H](CCCNC(=N)N)NC(=O)[C@H](C)NC(=O)[C@@H]2CCCN2C(=O)[C@H](Cc2cccnc2)NC(=O)[C@H](CO)NC1=O)C(=O)N[C@@H](CC(C)C)C(=O)N[C@@H](Cc1c[nH]cn1)C(=O)N[C@@H](CCC(N)=O)C(=O)N[C@@H](CC(=O)O)C(=O)N[C@@H](CC(C)C)C(=O)N[C@H](C(N)=O)CSC3
B2: Ac-(06-34-18) 2NAL2 (peptide)
peptide: Ac-CS[2Nal]PARCLHQDLC-NH2
modifications: linker 1-7-13 via TBMB
SMILES: CC(=O)N[C@H]1CSCc2cc3cc(c2)CSC[C@H](NC(=O)[C@H](CCCNC(=N)N)NC(=O)[C@H](C)NC(=O)[C@@H]2CCCN2C(=O)[C@H](Cc2ccc4ccccc4c2)NC(=O)[C@H](CO)NC1=O)C(=O)N[C@@H](CC(C)C)C(=O)N[C@@H](Cc1c[nH]cn1)C(=O)N[C@@H](CCC(N)=O)C(=O)N[C@@H](CC(=O)O)C(=O)N[C@@H](CC(C)C)C(=O)N[C@H](C(N)=O)CSC3
B3: Ac-(06-34-18) 1NAL2 (peptide)
peptide: Ac-CS[1Nal]PARCLHQDLC-NH2
modifications: linker 1-7-13 via TBMB
SMILES: CC(=O)N[C@H]1CSCc2cc3cc(c2)CSC[C@H](NC(=O)[C@H](CCCNC(=N)N)NC(=O)[C@H](C)NC(=O)[C@@H]2CCCN2C(=O)[C@H](Cc2cccc4ccccc24)NC(=O)[C@H](CO)NC1=O)C(=O)N[C@@H](CC(C)C)C(=O)N[C@@H](Cc1c[nH]cn1)C(=O)N[C@@H](CCC(N)=O)C(=O)N[C@@H](CC(=O)O)C(=O)N[C@@H](CC(C)C)C(=O)N[C@H](C(N)=O)CSC3
B4: Ac-(06-34-18) Phe2 Cha4 (peptide)
peptide: Ac-CSFP[Cha]RCLHQDLC-NH2
modifications: linker 1-7-13 via TBMB
SMILES: CC(=O)N[C@H]1CSCc2cc3cc(c2)CSC[C@H](NC(=O)[C@H](CCCNC(=N)N)NC(=O)[C@H](CC2CCCCC2)NC(=O)[C@@H]2CCCN2C(=O)[C@H](Cc2ccccc2)NC(=O)[C@H](CO)NC1=O)C(=O)N[C@@H](CC(C)C)C(=O)N[C@@H](Cc1c[nH]cn1)C(=O)N[C@@H](CCC(N)=O)C(=O)N[C@@H](CC(=O)O)C(=O)N[C@@H](CC(C)C)C(=O)N[C@H](C(N)=O)CSC3
B5: Ac-(06-34-18) Phe2 1Nal4 (peptide)
peptide: Ac-CSFP[1Nal]RCLHQDLC-NH2
modifications: linker 1-7-13 via TBMB
SMILES: CC(=O)N[C@H]1CSCc2cc3cc(c2)CSC[C@H](NC(=O)[C@H](CCCNC(=N)N)NC(=O)[C@H](Cc2cccc4ccccc24)NC(=O)[C@@H]2CCCN2C(=O)[C@H](Cc2ccccc2)NC(=O)[C@H](CO)NC1=O)C(=O)N[C@@H](CC(C)C)C(=O)N[C@@H](Cc1c[nH]cn1)C(=O)N[C@@H](CCC(N)=O)C(=O)N[C@@H](CC(=O)O)C(=O)N[C@@H](CC(C)C)C(=O)N[C@H](C(N)=O)CSC3
B6: Ac-(06-34-18) Phe2 4Pal4 (peptide)
peptide: Ac-CSFP[4Pal]RCLHQDLC-NH2
modifications: linker 1-7-13 via TBMB
SMILES: CC(=O)N[C@H]1CSCc2cc3cc(c2)CSC[C@H](NC(=O)[C@H](CCCNC(=N)N)NC(=O)[C@H](Cc2ccncc2)NC(=O)[C@@H]2CCCN2C(=O)[C@H](Cc2ccccc2)NC(=O)[C@H](CO)NC1=O)C(=O)N[C@@H](CC(C)C)C(=O)N[C@@H](Cc1c[nH]cn1)C(=O)N[C@@H](CCC(N)=O)C(=O)N[C@@H](CC(=O)O)C(=O)N[C@@H](CC(C)C)C(=O)N[C@H](C(N)=O)CSC3

The source of these data is patent US10800813 (Bicycle, dated 2020).

Numbered stars: 1 amine (or outer) side, 2 acyl side, 3 side chain; on linkers, the order of the positions; unused ones are H or OH. Bridge positions count the residues as written; N and C are the ends. Square brackets hold non-standard residues; d marks the D form. Ends that are not written are not given here. Bip = N[C@@H](Cc1ccc(-c2ccccc2)cc1)C(=O)O; 1Nal = N[C@@H](Cc1cccc2ccccc12)C(=O)O; 2Nal = N[C@@H](Cc1ccc2ccccc2c1)C(=O)O; TBMB = c1c(C[*:1])cc(C[*:3])cc1C[*:2]; 3Pal = N[C@@H](Cc1cccnc1)C(=O)O; 4Pal = N[C@@H](Cc1ccncc1)C(=O)O; Cha = N[C@@H](CC1CCCCC1)C(=O)O

T2 sequence (P03952 20-638 limits assumed): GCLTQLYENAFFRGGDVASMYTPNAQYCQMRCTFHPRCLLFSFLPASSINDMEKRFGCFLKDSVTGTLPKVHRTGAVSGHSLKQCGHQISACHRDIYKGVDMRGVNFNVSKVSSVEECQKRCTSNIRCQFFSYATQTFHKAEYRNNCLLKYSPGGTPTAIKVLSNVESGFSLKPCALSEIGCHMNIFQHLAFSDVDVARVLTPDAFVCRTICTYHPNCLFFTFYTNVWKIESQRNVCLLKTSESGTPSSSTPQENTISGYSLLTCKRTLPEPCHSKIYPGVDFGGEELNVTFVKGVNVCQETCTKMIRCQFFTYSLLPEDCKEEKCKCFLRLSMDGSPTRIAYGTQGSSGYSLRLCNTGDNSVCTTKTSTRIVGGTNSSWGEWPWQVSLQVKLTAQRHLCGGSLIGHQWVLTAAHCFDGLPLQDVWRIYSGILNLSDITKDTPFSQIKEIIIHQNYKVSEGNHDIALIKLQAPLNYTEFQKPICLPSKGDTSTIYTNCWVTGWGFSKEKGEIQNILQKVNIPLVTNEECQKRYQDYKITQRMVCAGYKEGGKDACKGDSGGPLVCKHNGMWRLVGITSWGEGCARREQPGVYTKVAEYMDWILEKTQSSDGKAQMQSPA
T1 sequence (P03952 20-638 limits assumed): as above

The first assay has as its target T1, biotinylated human plasma Kallikrein (human, UniProt P03952 20-638, biotinylated).
T1 construct: also called Biotinylated hPK
Briefly: phage binding assay. The procedure: (§1) Library transformant colonies, or selection output colonies, were picked and grown as individual cultures in 2TY broth containing selective antibiotic. The picked colonies were DNA-sequenced using a QIAgen PyroMark Q96 DNA sequencer to reveal the amino-acid substitution present in each clone, and were assayed for human plasma Kallikrein binding as follows. The phage-containing supernatant was harvested from the culture and phage were cyclised with tris bromomethyl benzene(TBMB) based on the methods of Heinis et al (Nature Chemical Biology vol. 5 pp 502-507 (2009)). The purified phage from this process were assayed for binding to biotinylated human plasma Kallikrein using a homogeneous plate-based binding assay; assay read-out measured on a BMG Labtech Pherastar FS plate reader. The quantitative binding data from duplicate assay samples was averaged (mean) and expressed as signal:background. […] The assay data was correlated with the peptide sequences.
A library was constructed where positions 1, 6, 7, 8, 9 &10 of 06-34-03 were fixed and positions 2, 3, 4 & 5 were randomised (see 'Randomisation of peptide domains—Library construction' in Methods above). Selections against human plasma Kallikrein were performed at a variety of stringencies (see 'Phage selections' in Methods above). All output sequences were identified and analysed for target binding (see 'Randomisation of peptide domains—Assay of binding of individual clones' in Methods above). Table 17 lists each unique sequence, its relative abundance in the selection output (frequency), and a rank number according to target binding strength.
Take CSLFDHCTHQDLC (linker 1-7-13 via TBMB) [SEQ ID NO 112]: the “Rank (by Kallikrein binding)” value was 40.

Turning to CSHRRWCTHQDLC (linker 1-7-13 via TBMB) [SEQ ID NO 113], the “Rank (by Kallikrein binding)” value came to 41.

Regarding CSWPARCTHQDLC (linker 1-7-13 via TBMB) [SEQ ID NO 73], the “Rank (by Kallikrein binding)” value came to 1.

For the molecule CSYPYRCTHQDLC (linker 1-7-13 via TBMB) [SEQ ID NO 98], the “Rank (by Kallikrein binding)” value was found to be 26.

For CSWWARCTHQDLC (linker 1-7-13 via TBMB) [SEQ ID NO 99], the “Rank (by Kallikrein binding)” value was 27.

As for CSWQARCTHQDLC (linker 1-7-13 via TBMB) [SEQ ID NO 114], the “Rank (by Kallikrein binding)” value was found to be 42.

A further assay has as its target T2, human plasma Kallikrein (human, UniProt P03952 20-638, limits assumed).
T2 construct: also called hPK; human PK
Briefly: enzyme inhibition assay.
As usually defined, the Ki is the dissociation constant of the complex between target and ligand, obtained from inhibition or displacement. A higher Ki goes with lower affinity. Molecule ACAWPAKCLTRELCA (linker 2-8-14 via TBMB, also called PK103) [1B1] had a Ki of 8.1 nM.

The molecule ACRWPARCLTTSLCA (linker 2-8-14 via TBMB; not fully specified (N-terminus, C-terminus), also called PK102) [06-59] returned a Ki of 0.5 nM.

For ACTWPARCTHQNWCA (linker 2-8-14 via TBMB; not fully specified (N-terminus, C-terminus), also called PK107) [06-09], the Ki is 1.2 nM.

Consider ACTWPARCTMQNWCA (linker 2-8-14 via TBMB, also called PK108) [06-A2*], for which the Ki is 181 nM.

ACGVPYRCTHQEMCA (linker 2-8-14 via TBMB; not fully specified (N-terminus, C-terminus), also called PK111) [06-64 T] yielded an inhibition constant (Ki) of 6.9 nM.

In turn, ACSWPARCNHQDLCA (linker 2-8-14 via TBMB; not fully specified (N-terminus, C-terminus), also called PK105) [06-57] showed a Ki of 0.4 nM.

ACNWPYRCLHTDLCA (linker 2-8-14 via TBMB; not fully specified (N-terminus, C-terminus), also called PK110) [06-157] had a Ki of 3.3 nM.

Regarding ACSWPYRCLHQDYCA (linker 2-8-14 via TBMB; not fully specified (N-terminus, C-terminus), also called PK109) [06-61], the Ki came out at 5.8 nM. Compared with the last molecule, the Ki is about 1.8-fold higher.

For the molecule ACGGYNNCRAFSYCA (linker 2-8-14 via TBMB, also called PK115) [1F7], the Ki stood at 2.2 nM.

Take ACADPWACLFRRPCA (linker 2-8-14 via TBMB; not fully specified (N-terminus, C-terminus), also called PK113) [06-63 T]: the Ki is 1280 nM.

The next assay has as its target T2, human plasma Kallikrein. Description: enzyme inhibition assay. The source holds these as a separate data set.
Turning to B1, the affinity corresponds to a Ki of 59 nM. This counts as double-digit nanomolar.

In turn, B2 registered a Ki of 0.5 nM. Against the preceding molecule, the Ki is about 120-fold lower.

In turn, B3 displayed a Ki of 10.7 nM. This Ki lies about 21-fold higher than the previous one.

A further assay addresses T2, human plasma Kallikrein. Description: enzyme inhibition assay. The source holds these as a separate data set.
Ac-CSFP[Bip]RCLHQDLC-NH2 (linker 1-7-13 via TBMB) [Ac-(06-34-18) Phe2 4,4-BPal4] gave a Ki of 10.5 nM.

Consider B4, for which the Ki was 0.91 nM.

B5: the Ki worked out at 13.5 nM.

Consider Ac-CSFP[2Nal]RCLHQDLC-NH2 (linker 1-7-13 via TBMB) [Ac-(06-34-18) Phe2 2Nal4], for which the Ki amounted to 7.27 nM.

On to Ac-CS[4Pal]PYRCLHQDLC-NH2 (linker 1-7-13 via TBMB) [Ac-(06-34-18) 4Pal2 Tyr4], for which the Ki worked out at 3.56 nM.

In turn, Ac-CS[3Pal]PYRCLHQDLC-NH2 (linker 1-7-13 via TBMB) [Ac-(06-34-18) 3Pal2 Tyr4] returned a Ki of 0.91 nM.

Ac-CS[Cha]PYRCLHQDLC-NH2 (linker 1-7-13 via TBMB) [Ac-(06-34-18) Cha2 Tyr4] yielded an inhibition constant (Ki) of 1.87 nM. This Ki is about 2.1-fold higher than that of the molecule before.

As to B6, the Ki was found to be 2.2 nM.

Ac-CSFP[3Pal]RCLHQDLC-NH2 (linker 1-7-13 via TBMB) [Ac-(06-34-18) Phe2 3Pal4] gave a Ki of 2.57 nM. The Ki values of the last two molecules are within 1.5-fold of each other.

Another assay deals with T1, biotinylated human plasma Kallikrein. Description: phage binding assay, signal:background. The protocol: as §1
Selections against human plasma Kallikrein were performed with this library in order to study the non-WPAR (SEQ ID NO: 18) determinants of Kallikrein binding, and to isolate the optimal WPAR (SEQ ID NO: 18)-containing peptide sequence.
CSWPARCTHQDLC (linker 1-7-13 via TBMB) [SEQ ID NO 73]: the Binding assay signal came out at 110.
